The record followed here is article PMC8441438, “Dynamic regulation of mitotic ubiquitin ligase APC/C by coordinated Plx1 kinase and PP2A phosphatase action on a flexible Apc1 loop” (The EMBO Journal, 2021).

Positions count from the first letter of the chain named. Names and notes keep the numbering of the source. Non-standard residues stand in square brackets, D forms with d. pT = C[C@@H](OP(=O)(O)O)[C@H](N)C(=O)O; pS = N[C@@H](COP(=O)(O)O)C(=O)O

Sequences and labels used below:
B1: MBP-fused Apc1-loop^500 WT phosphorylated by Cdk2/cyclin A (domain or fragment, Xenopus tropicalis, UniProt Q08D52 515-584, looked up)
chain: GLAAPSLGMSNPMPRPSTPLESIS[pT]PAKPLNKHLAPMDEAGML[pS]PVPELRDSTRLHESTYLDDCTFHQFG
modifications: not fully specified (residue 18, N-terminus); also: MBP fusion, pT532 only in upper of two bands (partial), phosphorylated in vitro by Cdk2/cyclin A
notes: Apc1, Xenopus tropicalis, loop^500, residues 515-584; After phosphorylation the protein runs as two bands; only the upper one carries pT532; also called Apc1-loop^500 (CDK^+); phosphorylated MBP-Apc1-loop^500; source: recombinant, purified, then phosphorylated in vitro with purified Cdk2/cyclin A at 30°C for 2 h; not shown: MBP, N-terminal, kept
B2: Plx1-PBD WT (polo-box domain of Plx1) (domain or fragment, Xenopus laevis, UniProt P70032 362-598, looked up)
chain: EPADCYLSEMLQQLTCLNAVKPSERALIRQEEAEDPASIPIFWISKWVDYSDKYGLGYQLCDNSVGVLFNDSTRLIMYNDGDSLQYIERNNTESYLNVRSYPTTLTKKITLLKYFRNYMSEHLLKAGANTTPREGDELARLPFLRTWFRTRSAIILHLSNGTVQINFFQDHTKIILCPLMAAVSYIDEKREFRTYKLSLIQEFGCCKELASRLRYARTMVEKLQSSKSAVAHVKASA
notes: Plx1, Xenopus laevis, polo-box domain, amino acids 362-598; 3xFlag is PreScission-cleavable, His6 TEV-cleavable; cleavage is not reported; also called WT Plx1-PBD; source: E. coli BL21-CodonPlus (DE3), purified (Ni-NTA agarose)
B3: MBP-fused Apc1-loop^500 T532A phosphorylated by Cdk2/cyclin A (domain or fragment, Xenopus tropicalis, UniProt Q08D52 515-584, looked up)
chain: GLAAPSLGMSNPMPRPSAPLESISTPAKPLNKHLAPMDEAGMLSPVPELRDSTRLHESTYLDDCTFHQFG
modifications: also: MBP fusion, phosphorylated in vitro by Cdk2/cyclin A, sites not given here
notes: Apc1, Xenopus tropicalis, loop^500, residues 515-584; source: recombinant, purified, then phosphorylated in vitro with purified Cdk2/cyclin A; not shown: MBP, N-terminal, kept
B4: MBP-fused Apc1-loop^500 WT fragment (domain or fragment, Xenopus tropicalis, UniProt Q08D52 515-584, looked up)
chain: B3 chain with A18T
notes: Apc1 (APC/C subunit 1), Xenopus tropicalis, loop^500, residues 515-584; Added unphosphorylated; becomes phosphorylated at CDK sites T532, T539 and S558 when incubated in anaphase egg extracts; MBP is PreScission-cleavable and His6 TEV-cleavable; also called MBP-Apc1-loop^500; CDK^- Apc1-loop^500; source: recombinant, purified as described previously (Fujimitsu & Yamano, 2020); not shown: MBP, …
B5: MBP-fused Apc1-loop^500 E562A (domain or fragment, Xenopus tropicalis, UniProt Q08D52 515-584, looked up)
chain: B3 chain with A18T, E48A
notes: Apc1, Xenopus tropicalis, loop^500, residues 515-584; source: recombinant, purified as described previously (Fujimitsu & Yamano, 2020); not shown: MBP, N-terminal, kept

Common to all, as to conditions: both partners purified
For experiment [1], the target named is B2. The experiment can be described thus: pull-down; purified proteins only: MBP-fused Apc1-loop^500 incubated with or without purified Cdk2/cyclin A (30°C, 2 h, 1 mM ATP), bound to amylose beads, incubated with Plx1-PBD at 4°C (on ice) for 10 min in XB^CSF with 0.01% NP-40 without EGTA; Coomassie staining.
In experiment [2] the target is B4. Description: pull-down; MBP-fused Apc1-loop^500 on amylose beads incubated in anaphase extracts at 23°C for 1 h, then purified Plx1-PBD (10 µg or indicated amounts) added to the extract for 15 min; bound proteins by SDS-PAGE and Coomassie staining.
The target of experiment [3] is B2. The experiment is described as above.
Experiment [4] addresses B2. The experiment can be described thus: pull-down; dissociation assay: Plx1-PBD/MBP-Apc1-loop^500 complexes formed in anaphase extracts, isolated on amylose beads and incubated with (78 nM) or without purified PP2A-B56γ at 23°C for 30 or 60 min; PBD left on the beads by Coomassie staining.

As for B1, the binding result in experiment [1] is recorded as “binds”.

For the molecule B2, the “stoichiometry N” value in experiment [2] is > 1 Plx1-PBD per Apc1-loop^500. As to B3, in experiment [1], the binding result is on record as “binds”. For B4, in experiment [3], the binding result is “binds”.

For B5, the binding result in experiment [4] is reported as “binds”.
